Assay results taken from US20120039878A1 (ELAN PHARMACEUTICALS, published 2012).
Substitutions are numbered along the chain they refer to.

T1: human AA amyloid (human renal AA amyloid extract; AA deposits in human tissue) (human)
T1 construct: also called human AA amyloid extract; human AA amyloid fibrils
T1 sequence (P0DJI8 19-94, looked up): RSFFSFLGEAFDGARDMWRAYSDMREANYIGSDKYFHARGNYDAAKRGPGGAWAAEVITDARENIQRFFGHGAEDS

T2: peptide 69, CGGHEDTMA
T2 peptide: CGGHEDTMA

T3: peptide 70, CGGHEDTMAD
T3 peptide: CGGHEDTMAD

T4: peptide 66, CGGHEAT
T4 peptide: CGGHEAT

T5: peptide 68, CGGHEDTM
T5 peptide: CGGHEDTM

T6: murine AA amyloid (AA fibrils; amyloid enhancing factor extract, AEF) (mouse)
T6 construct: also called Mouse AA (AEF); murine AA AEF
T6 sequence (P05366 whole entry, looked up): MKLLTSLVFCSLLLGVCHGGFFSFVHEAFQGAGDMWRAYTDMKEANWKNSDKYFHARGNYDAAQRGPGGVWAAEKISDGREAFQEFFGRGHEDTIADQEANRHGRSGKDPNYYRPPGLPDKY

T7: peptide 71, CGGHED
T7 peptide: CGGHED

T8: peptide 65, CGGHADT
T8 peptide: CGGHADT

B1: murine monoclonal antibody 2A4 (ATCC Accession Number PTA-9662) (antibody, V domains shown)
VH: EVQLVESGGRLVQPKGSLKLSCAASGFTFNTYAMYWIRQAPGKGLEWVARIRSKSNNYAIYYADSVKDRFTIFRDDSQSMLYLQMNNLKTEDTAMYYCVRPYSDSFAYWGQGTLVTVSA
VL: DVVMTQTPLSLPVSLGDQASISCRSSQSLVHSTGNTYLHWYLQKPGQSPKLLIYKVSNRFSGVPDRFSGSGSGTYFTLKISRVEAEDLGVYFCSQSTHVPFTFGGGTKLEIK
notes: Murine IgG2b kappa; Used as hybridoma culture supernatant or as protein A-purified mAb; also called mAb 2A4; 2A4.20.44.77
B2: murine monoclonal antibody 8G9 (antibody, mouse IgG2b, V domains shown)
VH: B1 VH
VL: B1 VL
notes: Murine IgG2b kappa; also called mAb 8G9; 8G9.3.4.51.22
B3: murine monoclonal antibody 7D8 (ATCC Accession Number PTA-9468) (antibody, mouse IgG2b, V domains shown)
VH: B1 VH
VL: B1 VL with Q27L
notes: Murine IgG2b kappa; also called mAb 7D8; 7D8.29.19.47

Legend:
[1] = molecular target: T9, synthetic Vλ6 Wil fibrils; test: SPR (BIAcore), mAb at 6.6 nM over immobilized synthetic Vλ6 Wil fibrils
T9 construct: Fibrillar (aggregated) form, sonicated and amine-coupled to a CM-5 chip (about 16,000 RU); also called immobilized Vλ6 Wil fibrils
Experimental: Surface plasmon resonance was used to establish the binding kinetics of several monoclonal antibodies with Vλ6 Wil fibrils and monomer. […] The deflection (expressed in RU) during the binding phase was similar for mAbs 7D8 and 2A4 but was 50% lower for 8G9.
(§1) Sensograms were run in HBS-EP buffer from BIAcore at 20 μL/min in the Fc1 (Vλ6 Wil fibrils) minus Fc-2 (control) mode. Samples containing mAb or mAb plus peptide inhibitors were injected (70 μL) and the sensograms collected using the delayed-wash function for 200 sec. Data were analyzed in the BIAevalutation software, using the 1:1 Langmuir model with mass-action correction.

[2] = molecular target: T1, human AA amyloid (human renal AA …); test: ELISA, purified mAb on plate-dried human AA amyloid extract
Experimental: (§2) Protein Mr markers (Std) are, form top to bottom: 176, 119, 75, 49, 39, 25 and 19 kDa. The interaction of the purified mAbs with immunizing peptide p#39, control peptide (p#41), murine and human AA extracts were determined by ELISA as described above.
(§3) In contrast, even at the highest concentration of mAb used (100 nM) there was little detectable binding to the p#41 peptide (FIG. 33—Each point represents the mean±SE, (n=3 at each concentration)). […] The calculated EC50 values for the mAbs binding to mouse AA extract were essentially identical to those obtained when the p#39 peptide was used as the substrate (FIG. 34; Table 5). […] Because the EC50 value for 7D8 mAb binding was the lowest of the 3 antibodies tested, Applicants selected this reagent for in vivo co-localization and imaging studies. The 2 amino acid substitutions in the human SAA sequence with respect to the murine protein affected the EC50 values.

[3] = molecular target: T2, peptide 69, CGGHEDTMA; test: BIAcore, antibody binding to peptides
[4] = molecular target: T3, peptide 70, CGGHEDTMAD; test: BIAcore, antibody binding to peptides
[5] = molecular target: T4, peptide 66, CGGHEAT; test: BIAcore, antibody binding to peptides
[6] = molecular target: T5, peptide 68, CGGHEDTM; test: BIAcore, antibody binding to peptides
[7] = molecular target: T6, murine AA amyloid (AA fibrils; amyloid …); test: ELISA, purified mAb on mouse AA amyloid extract (AEF)
Experimental: as §2, §3

[8] = molecular target: T6, murine AA amyloid (AA fibrils; amyloid …); test: ELISA, hybridoma culture supernatant on murine AA AEF; not corrected for mAb concentration
Source text: The interaction of 2A4, 8G9 and 7D8 mAbs with AA amyloid was initially tested by ELISA and the data, given in FIG. 31, analyzed using SigmaPlot (SPSS Inc.). Each point represents the mean±SE (n=3). A culture supernatant from an irrelevant hybridoma was used as a control (Ctrl Culture Sup). […] (In addition, the immunohistochemical reactivity of the day 1 material was greater than the day 2 samples). […] Because of the low signal and high variability found with the culture supernatants and to determine more accurately the relative binding affinity of the mAbs for murine and human AA amyloid fibrils (as well as to provide material for in vivo biodistribution studies) it was necessary to isolate the mAbs by protein A affinity chromatography. The purity of the isolated mAbs was established SDS-PAGE using 10% acrylamide gels under reducing and non-reducing conditions (FIG. 32). Samples in lanes 1-4 treated with mercaptoethanol, lanes 5-9 without. Gel was stained with Coomassie blue: mAb 8G9, lanes 1 and 6; mAb 2A4, lanes 2 and 7; mAb 7D8, lanes 3 and 8; SP2/0 control supernatant, lanes 4 and 9; blank, lane 5. Protein Mr markers (Std) are, form top to bottom: 176, 119, 75, 49, 39, 25 and 19 kDa. The interaction of the purified mAbs with immunizing peptide p#39, control peptide (p#41), murine and human AA extracts were determined by ELISA as described above.

[9] = molecular target: T7, peptide 71, CGGHED; test: BIAcore, antibody binding to peptides
[10] = molecular target: T8, peptide 65, CGGHADT; test: BIAcore, antibody binding to peptides
[11] = molecular target: B3; test: BIAcore competition: peptide p41 in solution with mAb 7D8 (6.6 nM) injected over immobilized Vλ6 Wil fibrils
Experimental: FIG. 28: Binding kinetics of mAb 7D8 to synthetic Vλ6 Wil fibrils in the presence of the p39 and p41 peptides. The interaction of the mAb 7D8 at 6.6 nM with immobilized Vλ6 Will fibrils was measured by BIAcore in the presence of peptides p39 and p41 at 1 or 20 μg/mL.
To assess the specificity of the reaction and ensure that the binding of the mAbs with the fibrils occurred via the classic F(ab)-antigen interaction (as opposed to Fc-mediated binding or non-specific adsorption), binding data were acquired in the presence of the immunogen peptide (p39) at 20 and 1 μg/mL (FIG. 8). […] In the presence of 20 μg/mL p41 peptide, the binding kinetics for mAb 7D8 with Vλ6 Wil fibrils were identical to 7D8 alone.
as §1

Kd [1] [nM]	EC50 [2] [nM]	binding result [3]	binding result [4]	binding result [5]	binding result [6]	EC50 [7] [nM]	supernatant dilution after which reactivity is absent [8]	binding result [9]	binding result [10]	binding result [11]	Binder
~1	26.4	no binding	no binding	no binding	no binding	4.09	~64 fold dilution (1:x)	–	–	–	B1
~1	31.7	–	–	–	–	5.64	~64 fold dilution (1:x)	–	–	–	B2
~1	13.3	no binding	no binding	no binding	no binding	1.84	~64 fold dilution (1:x)	no binding	no binding	–	B3
–	–	–	–	–	–	–	–	–	–	no binding (tested: 20 µg/mL)	GHEDTIADQE (also called p41; p#41) [peptide 41, GHEDTIADQE]
